Data: IntAct's records for PubMed 17229891

Molecular target: 1433b_human YWHAB (UniProt P31946)
Chain of UniProt P31946 (P31946 whole entry): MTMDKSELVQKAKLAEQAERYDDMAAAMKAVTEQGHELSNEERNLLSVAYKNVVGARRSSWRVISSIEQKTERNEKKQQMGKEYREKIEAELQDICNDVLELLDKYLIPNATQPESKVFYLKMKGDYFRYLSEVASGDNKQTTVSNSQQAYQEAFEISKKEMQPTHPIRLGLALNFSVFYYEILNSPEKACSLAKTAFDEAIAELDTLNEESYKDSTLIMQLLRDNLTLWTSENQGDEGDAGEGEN

effect of a mutation on the interaction: decreasing interaction
Substance: Dual specificity tyrosine-phosphorylation-regulated kinase 1A (Homo sapiens) (from UniProt Q13627-2) S520A
